In the Human Domainome abundance scans (Beltran et al. 2025):
± gives the uncertainty stated by the source.

assay: abundance fitness (aPCA) (normalised: wild type 0, dead -1); higher = more abundant; growth selection in yeast, the domain comes from the species named; conditions: Homo sapiens

Row | Substance | abundance fitness
1 | BAG family molecular chaperone regulator 3 G25V, O95817 | -1.23 ± 0.33
2 | SAFB-like transcription modulator S32Q, Q9NWH9 | -0.325 ± 0.097
3 | SAFB-like transcription modulator V27K, Q9NWH9 | -0.533 ± 0.27
4 | BAG family molecular chaperone regulator 3 W49M, O95817 | -0.21 ± 0.18
5 | BAG family molecular chaperone regulator 3 D20C, O95817 | -0.2 ± 0.11
6 | SAFB-like transcription modulator N65T, Q9NWH9 | -0.281 ± 0.059
7 | SAFB-like transcription modulator L52D, Q9NWH9 | -0.497 ± 0.05
8 | BAG family molecular chaperone regulator 3 T47Q, O95817 | -0.741 ± 0.14
9 | SAFB-like transcription modulator T23F, Q9NWH9 | -0.127 ± 0.035
10 | SAFB-like transcription modulator L30C, Q9NWH9 | -0.497 ± 0.083
11 | SAFB-like transcription modulator D24N, Q9NWH9 | -0.098 ± 0.034
12 | BAG family molecular chaperone regulator 3 D20M, O95817 | 0.365 ± 0.15
13 | SAFB-like transcription modulator V27A, Q9NWH9 | -0.395 ± 0.1
14 | BAG family molecular chaperone regulator 3 P32V, O95817 | -0.268 ± 0.13
15 | SAFB-like transcription modulator R26D, Q9NWH9 | 0.033 ± 0.15
16 | BAG family molecular chaperone regulator 3 W49E, O95817 | -0.221 ± 0.12
17 | BAG family molecular chaperone regulator 3 H42W, O95817 | -0.886 ± 0.14
18 | SAFB-like transcription modulator K35V, Q9NWH9 | -0.11 ± 0.042
19 | BAG family molecular chaperone regulator 3 G58N, O95817 | 0.51 ± 0.35
20 | SAFB-like transcription modulator R51G, Q9NWH9 | -0.574 ± 0.078
21 | BAG family molecular chaperone regulator 3 I28R, O95817 | 0.171 ± 0.066
22 | BAG family molecular chaperone regulator 3 N50P, O95817 | -0.353 ± 0.31
23 | SAFB-like transcription modulator K35I, Q9NWH9 | -0.067 ± 0.037
24 | BAG family molecular chaperone regulator 3 V54C, O95817 | -0.022 ± 0.12
25 | SAFB-like transcription modulator L39Q, Q9NWH9 | -0.499 ± 0.11

Row | Substance | abundance fitness
26 | SAFB-like transcription modulator K21Q, Q9NWH9 | -0.336 ± 0.052
27 | SAFB-like transcription modulator T23N, Q9NWH9 | -0.066 ± 0.035
28 | BAG family molecular chaperone regulator 3 T47V, O95817 | -0.302 ± 0.073
29 | BAG family molecular chaperone regulator 3 W26G, O95817 | -0.653 ± 0.17
30 | SAFB-like transcription modulator L25A, Q9NWH9 | -0.385 ± 0.032
31 | SAFB-like transcription modulator P63C, Q9NWH9 | -0.134 ± 0.04
32 | SAFB-like transcription modulator T46L, Q9NWH9 | -0.082 ± 0.052
33 | BAG family molecular chaperone regulator 3 P37A, O95817 | 0.4 ± 0.12
34 | SAFB-like transcription modulator G43C, Q9NWH9 | -0.464 ± 0.19
35 | SAFB-like transcription modulator D29C, Q9NWH9 | -0.854 ± 0.22
36 | SAFB-like transcription modulator T23H, Q9NWH9 | -0.281 ± 0.034
37 | SAFB-like transcription modulator L34Q, Q9NWH9 | -0.673 ± 0.057
38 | BAG family molecular chaperone regulator 3 I28M, O95817 | 0.248 ± 0.14
39 | SAFB-like transcription modulator I66L, Q9NWH9 | -0.268 ± 0.094
40 | SAFB-like transcription modulator V47C, Q9NWH9 | -0.074 ± 0.037
41 | SAFB-like transcription modulator I41A, Q9NWH9 | 0.075 ± 0.075
42 | BAG family molecular chaperone regulator 3 F38N, O95817 | -0.724 ± 0.46
43 | BAG family molecular chaperone regulator 3 N50L, O95817 | -0.181 ± 0.17
44 | BAG family molecular chaperone regulator 3 G17P, O95817 | 1.15 ± 0.12
45 | BAG family molecular chaperone regulator 3 Q11M, O95817 | 1.03 ± 0.39
46 | SAFB-like transcription modulator K21G, Q9NWH9 | -0.265 ± 0.046
47 | SAFB-like transcription modulator K35Y, Q9NWH9 | -0.086 ± 0.37
48 | BAG family molecular chaperone regulator 3 W26H, O95817 | -0.362 ± 0.069
49 | BAG family molecular chaperone regulator 3 D20Y, O95817 | -0.479 ± 0.3
50 | SAFB-like transcription modulator N65G, Q9NWH9 | -0.365 ± 0.052

Row | Substance | abundance fitness
51 | BAG family molecular chaperone regulator 3 N16D, O95817 | 0.008 ± 0.07
52 | SAFB-like transcription modulator K20L, Q9NWH9 | -0.21 ± 0.078
53 | BAG family molecular chaperone regulator 3 T46S, O95817 | -0.183 ± 0.12
54 | BAG family molecular chaperone regulator 3 R45Q, O95817 | 0.541 ± 0.17
55 | SAFB-like transcription modulator Q54C, Q9NWH9 | -0.209 ± 0.087
56 | SAFB-like transcription modulator K53S, Q9NWH9 | -0.141 ± 0.043
57 | BAG family molecular chaperone regulator 3 D41R, O95817 | -0.59 ± 0.084
58 | BAG family molecular chaperone regulator 3 N16V, O95817 | 0.368 ± 0.1
59 | SAFB-like transcription modulator L48F, Q9NWH9 | -0.886 ± 0.062
60 | BAG family molecular chaperone regulator 3 G35W, O95817 | -0.726 ± 0.19
61 | SAFB-like transcription modulator G19T, Q9NWH9 | -0.406 ± 0.34
62 | SAFB-like transcription modulator S32E, Q9NWH9 | -0.03 ± 0.05
63 | SAFB-like transcription modulator L30P, Q9NWH9 | -0.716 ± 0.067
64 | SAFB-like transcription modulator L39P, Q9NWH9 | -0.81 ± 0.067
65 | SAFB-like transcription modulator D64M, Q9NWH9 | -0.016 ± 0.04
66 | BAG family molecular chaperone regulator 3 G15R, O95817 | 0.737 ± 0.059
67 | SAFB-like transcription modulator R26S, Q9NWH9 | -0.011 ± 0.071
68 | SAFB-like transcription modulator K31L, Q9NWH9 | -0.155 ± 0.042
69 | SAFB-like transcription modulator G19I, Q9NWH9 | 0.503 ± 0.23
70 | BAG family molecular chaperone regulator 3 S44K, O95817 | -0.7 ± 0.43
71 | BAG family molecular chaperone regulator 3 E27A, O95817 | -0.617 ± 0.18
72 | SAFB-like transcription modulator E58K, Q9NWH9 | -0.134 ± 0.084
73 | SAFB-like transcription modulator V44R, Q9NWH9 | -0.054 ± 0.034
74 | BAG family molecular chaperone regulator 3 E57R, O95817 | -0.119 ± 0.081
75 | BAG family molecular chaperone regulator 3 Q11S, O95817 | 0.63 ± 0.11

Row | Substance | abundance fitness
76 | BAG family molecular chaperone regulator 3 G25M, O95817 | -0.652 ± 0.075
77 | BAG family molecular chaperone regulator 3 S56Y, O95817 | 0.376 ± 0.3
78 | SAFB-like transcription modulator D40C, Q9NWH9 | -0.594 ± 0.12
79 | BAG family molecular chaperone regulator 3 R45L, O95817 | -0.594 ± 0.18
80 | SAFB-like transcription modulator V27E, Q9NWH9 | -0.153 ± 0.11
81 | SAFB-like transcription modulator I41S, Q9NWH9 | -0.01 ± 0.042
82 | SAFB-like transcription modulator V27L, Q9NWH9 | -0.21 ± 0.082
83 | SAFB-like transcription modulator L25E, Q9NWH9 | -0.308 ± 0.1
84 | SAFB-like transcription modulator K35R, Q9NWH9 | -0.023 ± 0.041
85 | SAFB-like transcription modulator N65Y, Q9NWH9 | -0.191 ± 0.065
86 | BAG family molecular chaperone regulator 3 F39N, O95817 | -0.442 ± 0.29
87 | SAFB-like transcription modulator T23C, Q9NWH9 | -0.083 ± 0.042
88 | SAFB-like transcription modulator K31Y, Q9NWH9 | -0.213 ± 0.075
89 | BAG family molecular chaperone regulator 3 S14M, O95817 | -0.022 ± 0.2
90 | BAG family molecular chaperone regulator 3 S14H, O95817 | 0.623 ± 0.12
91 | BAG family molecular chaperone regulator 3 D18S, O95817 | -0.047 ± 0.13
92 | SAFB-like transcription modulator P63A, Q9NWH9 | -0.23 ± 0.053
93 | SAFB-like transcription modulator N38F, Q9NWH9 | -0.24 ± 0.083
94 | SAFB-like transcription modulator Q54V, Q9NWH9 | -0.209 ± 0.078
95 | BAG family molecular chaperone regulator 3 P55A, O95817 | 0.013 ± 0.078
96 | BAG family molecular chaperone regulator 3 Q11A, O95817 | 0.495 ± 0.34
97 | SAFB-like transcription modulator D62S, Q9NWH9 | -0.191 ± 0.046
98 | SAFB-like transcription modulator L52F, Q9NWH9 | -0.568 ± 0.12
